From US20220289846A1 (ZYDUS LIFESCIENCES, published 2022) come the findings set out here.

B1: IP-H4L1 (IgG4) (antibody)
heavy: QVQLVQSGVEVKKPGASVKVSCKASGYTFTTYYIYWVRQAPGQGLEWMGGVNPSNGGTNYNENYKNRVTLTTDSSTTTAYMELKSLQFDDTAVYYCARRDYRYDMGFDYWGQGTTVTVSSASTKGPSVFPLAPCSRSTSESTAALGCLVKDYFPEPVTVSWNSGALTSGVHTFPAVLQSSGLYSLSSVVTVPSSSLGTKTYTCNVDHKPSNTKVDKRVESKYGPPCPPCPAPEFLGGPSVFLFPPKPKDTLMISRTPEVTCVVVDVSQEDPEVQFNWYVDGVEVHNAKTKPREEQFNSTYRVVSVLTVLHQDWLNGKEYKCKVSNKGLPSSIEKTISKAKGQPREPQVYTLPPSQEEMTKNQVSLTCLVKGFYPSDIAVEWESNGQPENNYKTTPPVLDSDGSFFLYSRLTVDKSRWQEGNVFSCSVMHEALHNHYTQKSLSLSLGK
light: EIVLTQSPATLSLSPGERATLSCRASKGVSTSGYSYLHWYQQKPGQAPRLLIYLASYLESGVPARFSGSGSGTDFTLTISSLEPEDFAVYYCQHSRDLPLTFGGGTKVEIKRTVAAPSVFIFPPSDEQLKSGTASVVCLLNNFYPREAKVQWKVDNALQSGNSQESVTEQDSKDSTYSLSSTLTLSKADYEKHKVYACEVTHQGLSSPVTKSFNRGEC
B2: IP-H4L1 (IgG1) (antibody)
heavy: not shown
light: EIVLTQSPATLSLSPGERATLSCRASKGVSTSGYSYLHWYQQKPGQAPRLLIYLASYLESGVPARFSGSGSGTDFTLTISSLEPEDFAVYYCQHSRDLPLTFGGGTKVEIKRTVAAPSVFIFPPSDEQLKSGTASVVCLLNNFYPREAKVQWKVDNALQSGNSQESVTEQDSKDSTYSLSSTLTLSKADYEKHKVYACEVTHQGLSSPVTKSFNRGEC
B3: IP-H4.19L1 (antibody, human IgG4 S228P, kappa, V domains shown)
VH: QVQLVQSGVEVKKPGASVKVSCKASGYTFTTYYIYWVRQAPGQGLEWMGGVNPSNSGTNYNENYKNRVTLTTDSSTTTAYMELKSLQFDDTAVYYCARRDYRYDMGFDYWGQGTTVTVSS
VL: EIVLTQSPATLSLSPGERATLSCRASKGVSTSGYSYLHWYQQKPGQAPRLLIYLASYLESGVPARFSGSGSGTDFTLTISSLEPEDFAVYYCQHSRDLPLTFGGGTKVEIKR
B4: IP-H4.36L1 (antibody, human IgG4 S228P, kappa, V domains shown)
VH: QVQLVQSGVEVKKPGASVKVSCKASGYTFTTYYIYWVRQAPGQGLEWMGGVNPSNGGTNYNQNYKNRVTLTTDSSTTTAYMELKSLQFDDTAVYYCARRDYRYDMGFDYWGQGTTVTVSS
VL: EIVLTQSPATLSLSPGERATLSCRASKGVSTSGYSYLHWYQQKPGQAPRLLIYLASYLESGVPARFSGSGSGTDFTLTISSLEPEDFAVYYCQHSRDLPLTFGGGTKVEIKR
B5: IP-H4.2L1 (antibody, human IgG4 S228P, kappa, V domains shown)
VH: QVQLVQSGVEVKKPGASVKVSCKASGYTFTTYYIYWVRQAPGQGLEWMGGVNPSNGGTNYNENYKNRVTLTTDSSTTTAYMELKSLQFDDTAVYYCARRDYRYDMGYDYWGQGTTVTVSS
VL: EIVLTQSPATLSLSPGERATLSCRASKGVSTSGYSYLHWYQQKPGQAPRLLIYLASYLESGVPARFSGSGSGTDFTLTISSLEPEDFAVYYCQHSRDLPLTFGGGTKVEIKR
B6: N7NL (antibody, human IgG4 S228P, kappa, V domains shown)
VH: QVQLVESGGGVVQPGRSLRLDCKASGITFSNSGMHWVRQAPGKGLEWVAVIWYDGSKRYYADSVKGRFTISRDNSKNTLFLQMNSLRAEDTAVYYCATNSDYWGQGTLVTVSS
VL: EIVLTQSPATLSLSPGERATLSCRASQSVSSYLAWYQQKPGQAPRLLIYDASNRATGIPARFSGSGSGTDFTLTISSLEPEDFAVYYCQQSSNWPRTFGQGTKVEIKR
notes: Full-length IgG4 from the pZRCIII hyg.IgG4 vector
B7: N5NL (antibody, human IgG4 S228P, kappa, V domains shown)
VH: QVQLVESGGGVVQPGRSLRLDCKASGITFSNSGMHWVRQAPGKGLEWVAVIWYDGSKRYYADSVKGRFTISRDNSKNTLFLQMNSLRAEDTAVYYCATNSDFWGQGTLVTVSS
VL: EIVLTQSPATLSLSPGERATLSCRASQSVSSYLAWYQQKPGQAPRLLIYDASNRATGIPARFSGSGSGTDFTLTISSLEPEDFAVYYCQQSSNWPRTFGQGTKVEIKR
notes: Full-length IgG4 from the pZRCIII hyg.IgG4 vector. 'NSNL' in the text is an OCR form of N5NL; also called NSNL
B8: N6NL (antibody, human IgG4 S228P, kappa, V domains shown)
VH: QVQLVESGGGVVQPGRSLRLDCKASGITFSNSGMHWVRQAPGKGLEWVAVIWYDGSKRYYADSVKGRFTISRDNSKNTLFLQMNSLRAEDTAVYYCATNSDHWGQGTLVTVSS
VL: EIVLTQSPATLSLSPGERATLSCRASQSVSSYLAWYQQKPGQAPRLLIYDASNRATGIPARFSGSGSGTDFTLTISSLEPEDFAVYYCQQSSNWPRTFGQGTKVEIKR
notes: as for B6

For the experiment, the target named is T1, Human PD-1 (AcroBiosystems) (human, UniProt Q15116 25-167, limits assumed).
T1 construct: Bought recombinant protein, amine-coupled to the SPR chip
T1 sequence (Q15116 25-167 limits assumed): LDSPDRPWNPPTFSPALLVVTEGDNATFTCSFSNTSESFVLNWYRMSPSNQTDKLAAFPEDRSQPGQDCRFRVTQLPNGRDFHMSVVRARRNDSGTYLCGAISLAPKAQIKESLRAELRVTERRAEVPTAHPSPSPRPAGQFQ
The experiment can be described thus: SPR (ProteOn XPR), human PD-1 amine-coupled on GLC chip, antibody as analyte, Langmuir model. The procedure:
Human PD-1 (AcroBiosystems) was directly immobilized onto the GLC Chip (ProteOn) using amine-coupling method to obtain a ligand immobilization level of about 500 RU. 10 mM Phosphate Buffered Saline (PBS) (10mM phosphate buffer, pH 7.4, 300 mM NaCl, 0.005% Surfactant P20) was used as the running buffer to carry out the kinetic measurements. All the one step purified antibody samples were diluted in running buffer described above at a suitable concentration in series of concentrations from 10 nM to 0.09 nM. These samples were injected over the chip at a flow rate of 50 μL/min with an association time of 300 s and dissociation time of 1800s. After each sample run, the chip surface was regenerated with 10mM Glycine Buffer pH 1.5 for 18 sec at a flow rate of 100 μL/min.
KD values (Kinetic constants) were determined as the ratio of dissociation rate (kd) to association rate (ka), i.e. KD =kd/ka using ProteOn manager software v3.1.0.6.
For the molecule B1, the Kd stood at 0.0286 nM, the koff turned out to be 5.36e-05 s⁻¹ and the kon is 1.87e+06 M⁻¹ s⁻¹.
The like results for B2 were, in that order, 0.0248 nM, 5.21e-05 s⁻¹ and 2.12e+06 M⁻¹ s⁻¹.
On the same counts, the results for B3 are 0.0409 nM, 6.28e-05 s⁻¹ and 1.54e+06 M⁻¹ s⁻¹.
B4 displayed a Kd of 0.0317 nM, a koff of 6.2e-05 s⁻¹ and a kon of 1.96e+06 M⁻¹ s⁻¹.
The molecule B5 registered a Kd of 0.0082 nM, a koff of 1.37e-05 s⁻¹ and a kon of 1.67e+06 M⁻¹ s⁻¹.
The like results for B6 were, in that order, 0.0491 nM, 9.54e-05 s⁻¹ and 1.95e+06 M⁻¹ s⁻¹.
The like results for B7 were, in that order, 0.075 nM, 0.000151 s⁻¹ and 2.03e+06 M⁻¹ s⁻¹.
The like results for B8 were, in that order, 0.0826 nM, 0.000154 s⁻¹ and 1.86e+06 M⁻¹ s⁻¹.
